Reference: patent US12551573B2, “Compositions and methods for the targeting of PCSK9” (Scribe Therapeutics Inc., priority 2022, dated 2026)
Numbering of substitutions follows the chain as printed.

B1: DOMAIN_27566 (protein)
chain: QLTFEDVALSFSKEEWQIMDPNQKTLYIDVMREIYETVTSLGLKLKNDTGNDQPVSLSTSEIQPSGCKVLRKARMKVAQTT
modifications: Muntiacus muntjak
B2: DOMAIN_28158 (protein, listed as Odocoileus virginianus)
chain: B1 chain with R32Q
B3: DOMAIN_26886 (protein, listed as Homo sapiens)
chain: QLQETMTFKDVEVTFSQDEWGWLDSAQRNLYRDVMLENYRNMASLVGPFTKPALISWLEAREPWGLNMQAAQPKGNPVAAP
B4: DOMAIN_29066 (protein, listed as Xenopus tropicalis)
chain: VKFDEVAVVFSEDEWNLLTDQQRGLYMEVMKENYEHLIYLGFEVPVILSLLQDGGGIGSDTVTQSKSQQVAGAEESKSSVTLEGPIPETLPS
B5: DOMAIN_26463 (protein, listed as Pelodiscus sinensis)
chain: DSMRVTFEEVAVYFTPGQGALLGPAQRALYRDVMQENYEAVTSLGFPVPKPELIARLERGEEPWVPDLQAREEREIPRGTC
B6: DOMAIN_29434 (protein, listed as Mus caroli)
chain: MTYDDVHVNFTGEEWALLSPSQKRLYKDVMLETYRNLTAIGYNWEDHNSEHFQHSRRHGRHERRHTGEKPSVYTQCGKVFAYH
B7: DOMAIN_26925 (protein, listed as Alligator sinensis)
chain: PETVVSFEDVAVRFSPDEWHLLDDGQRRLYRDVLRENYSHVRSLGFPVPDLAVIFRMERGEEPWPPGLPAGTKSDDQEEER
B8: DOMAIN_27032 (protein, listed as Alligator mississippiensis)
chain: B7 chain with T72E, K73W, S74P, D75W, D76G, E78G, E79Q, E80A, R81P
B9: DOMAIN_28823 (protein)
chain: QVPVTFEDITVYFSREQWEYLDEGQKELYREVMKENYETLISLGTGPEGFNPEVLARIKLEEESHVWDPKEPGQKEVTRSY
modifications: Microcaecilia unicolor
B10: DOMAIN_32223 (protein, listed as Homo sapiens)
chain: GPQGARRQAFLAFGDVTVDFTQKEWRLLSPAQRALYREVTLENYSHLVSLGILHSKPELIRRLEQGEVPWGEERRRRPGP
B11: DOMAIN_31935 (protein, listed as Rhinolophus ferrumequinum)
chain: EKIEDMAVSLIREEWLLDPSQKDLRRDNRTENYRNMFSLGGETRSENRELASKQVASAGVQPHGETAARCNGDVTGALEHGEARDLLGSRVERQRAN
B12: DOMAIN_26999 (protein, listed as Xenopus laevis)
chain: AQDPVTFDDISVYFSRDEWALLDAGQKQLYREVMAENYRALVSVGYVMEEPGLVSHIEHEQQGSPIRSRSSLHAGRHCGFI
B13: DOMAIN_26496 (protein, listed as Geotrypetes seraphini)
chain: QMPVKFEDIAVSFSQEEWEYLDEEQKELYREVMKENYQTLISLGTGSPSITPDIISHIERGEEPYIREEPGSEEREPGRSS
B14: DOMAIN_27579 (protein)
chain: SQELLTFKDISVDFTQEEWGQLAPAHRNLYREVMLENYGNLVSVAGCQLSKPSVISQLEKGEEPWMTEKEGPGDPSSDLKS
modifications: Muntiacus muntjak
B15: DOMAIN_28051 (protein, listed as Neomonachus schauinslandi)
chain: B14 chain with E3G, C47Y, E62Q, P75S, S81N
B16: DOMAIN_28085 (protein, listed as Enhydra lutris)
chain: B14 chain with A23P, P24L, C47Y, E62Q, G71V, G73E, K80R, S81T
B17: DOMAIN_27902 (protein)
chain: B14 chain with I10V, A23S, P24L, C47Y, E62Q, E70K, S77P, S81N
modifications: Vulpes vulpes
B18: DOMAIN_29900 (protein)
chain: VAFEDVAVNFTQEEWALLNSSQKNLYREVMQETCRNLASVGSKWKDQNIEDHFEKPGKNIRKHMVQKLCESKEGSQYGEVVSQIPNL
modifications: Nomascus leucogenys
B19: DOMAIN_31340 (protein, listed as Homo sapiens)
chain: LTFEDVAVYFSEEEWQLLNPLEKTLYNDVMQDIYETVISLGLKLKNDTGNDHPISVSTSEIQTSGCEVSKKTRMKIAQKTMGRE
B20: DOMAIN_32327 (protein, listed as Homo sapiens)
chain: NMSQASVSFQDVTVEFTREEWQHLGPVERTLYRDVMLENYSHLISVGYCITKPKVISKLEKGEEPWSLEDEFLNQRYPGY
B21: DOMAIN_26501 (protein, listed as Geotrypetes seraphini)
chain: AQVPVTFEDIAVYFSQEEWEDLEEQQRELYKDVMKENYETLSSLGPPAVTPDIISHIERGEEPYIRFESGPEEREIGKSSC
B22: DOMAIN_5188 (protein, listed as Aotus trivirgatus)
chain: MITAQGPVSFRDVTVGFTQEEWQHLDPAQRTLYRDVMIENYSHLVSVGYCIPKPEVILKLEKGEEPWISEEKFPSQSHLEL
B23: DOMAIN_2499 (protein, listed as Pongo sp.)
chain: MNSEVIVDPIQGQVNFEDVFVYFSQEEWVLLDEAQRLLYRDVMLENFALMASLGHTSFMSHIGASLVMGSEPWVPDWVDMI
B24: DOMAIN_4516 (protein, listed as Callithrix sp.)
chain: MAAIPLKAQCQETVTFEDVAVHFTKTEWTGLSPAQRALYRSVMLENYGNLTAMGYLVPKPALISLLEGGDMAWGLEAQDDP
B25: DOMAIN_3463 (protein, listed as Hylobates sp.)
chain: MMTAVSLTTRPQESVAFEDVAVYFTAKEWDIMVPAERALYRDVMLENYEAVAFVVPPTSKPALVSHLEQGKESCFTRPQGV
B26: DOMAIN_2563 (protein, listed as Pongo sp.)
chain: MGPQGARRQAFLAFGDVTVDFTQKEWRLLSPTQRALYREVTLENYSHLVSLGILHSKPELIRRLEQGEAPWGEERRRRPGP
B27: DOMAIN_4120 (protein, listed as Macaca mulatta)
chain: MAFEDVAVYFSQEEWGLLDTAQRALYRHVMLENFTLVTSLGLSTSRPHVVIQLERGEEPWVPSGKDMTLARNTYRRLNAGS
B28: DOMAIN_5005 (protein, listed as Callithrix sp.)
chain: B27 chain with Q12E, H48L, E58D, G64V, T73A, R75G, L77R, N78T, A79T
B29: DOMAIN_2629 (protein, listed as Pongo sp.)
chain: MFPPARGKELLSFEDVAMYFTREEWGHLSWGQKDLYRDVMLENYRNMVLLGFQFPKPEVICQLENWDEQWILDLPRAGNRK
B30: DOMAIN_5125 (protein, listed as Callithrix sp.)
chain: MPANEDTPQPGGHGSACEVSVSFEDVTVDFSREEWQQLDSTQRRLYQDVMLENYSHLLSVGFEVPKPEVIFKLEQGEGPWT
B31: DOMAIN_3832 (protein, listed as Macaca mulatta)
chain: TMSCSRAGGITGCIKYSTASVAFRDVAVDFTQEEWRLLSPAQRTLHREVMLETYNHLVSLEIPSSKPKLIAQLERGEEPWR
B32: DOMAIN_3328 (protein, listed as Hylobates sp.)
chain: MGLVSFKDVAVDFTQEEWQQLDPSQRTLYRDVMLENYSHLVSMGYPVSKPDVISKLEQGEEPWIIKGDISNWIYPDEYQAD
B33: DOMAIN_2754 (protein, listed as Hylobates sp.)
chain: MAGEAEAQLDPSLQGLVMFEDVTVYFSREEWGLLNVTQKGLYRDVMLENFALVSSLGLAPSRSPVFTQLEDDEQSWVPNWV
B34: DOMAIN_4774 (protein, listed as Callithrix sp.)
chain: HGSSYEGSVSFRDVAINFSREEWRHLDLSQRNLYWDVMLETYSHLLSVGYQFPKPEVVMLEQGNEPWALQGERPRHSCPGE
B35: DOMAIN_737 (protein, listed as Pan paniscus)
chain: MAFEDVAVYFSQEEWGLLDTAQRALYRRVMLDNFALVASLGLSTSRPRVVIQLERGEEPWVPSGTDTTLSRTTYRRRNPGS
B36: DOMAIN_5006 (protein, listed as Callithrix sp.)
chain: B35 chain with G64E, T67M, L69M, T72N, Y74H
B37: DOMAIN_4121 (protein, listed as Macaca mulatta)
chain: B35 chain with T68I, T72N
B38: DOMAIN_5440 (protein, listed as Aotus trivirgatus)
chain: MAVDLLPAQESMTFRDVAVFFSQDEWLHLDSAQRALYREVMLENYSTLVSLGIPFSMPKVIHQLQQGQDPCMVEGEVPSDI

system: HBEGF locus; type: cell-based, human; settings: fold change in abundance of each repressor domain in the dXR library before vs after diphtheria toxin selection; dXR repression of the HBEGF gene; domains meeting p-value <0.01 and log2(fold change) >2

**Q.** How did the “Log2 (fold change)” value turn out when B1 was run?
**A.** 2.7825

**Q.** With B2 as the molecule, how does the “Log2 (fold change)” value read?
**A.** 3.0762

**Q.** Which “Log2 (fold change)” value does the source give for B3 here?
**A.** 3.3209

**Q.** How did the “Log2 (fold change)” value turn out when B4 was run?
**A.** 2.6393

**Q.** For B5, which “Log2 (fold change)” value is on record?
**A.** 2.8812

**Q.** Which “Log2 (fold change)” value does the source give for B6 here?
**A.** 2.2707

**Q.** For B7, which “Log2 (fold change)” value is on record?
**A.** 3.2248

**Q.** For B8, which “Log2 (fold change)” value is on record?
**A.** 3.4805

**Q.** How did the “Log2 (fold change)” value turn out when B9 was run?
**A.** 2.331

**Q.** With B10 as the molecule, how does the “Log2 (fold change)” value read?
**A.** 2.8836

**Q.** How did the “Log2 (fold change)” value turn out when B11 was run?
**A.** 3.5544

**Q.** Which “Log2 (fold change)” value does the source give for B12 here?
**A.** 3.4317

**Q.** How did the “Log2 (fold change)” value turn out when B13 was run?
**A.** 2.7991

**Q.** Which “Log2 (fold change)” value does the source give for B14 here?
**A.** 3.8878

**Q.** For B15, which “Log2 (fold change)” value is on record?
**A.** 2.4353

**Q.** For B16, which “Log2 (fold change)” value is on record?
**A.** 2.2962

**Q.** For B17, which “Log2 (fold change)” value is on record?
**A.** 2.9068

**Q.** For B18, which “Log2 (fold change)” value is on record?
**A.** 2.1583

**Q.** B19 was tested. Which “Log2 (fold change)” value did it give?
**A.** 2.8261

**Q.** How did the “Log2 (fold change)” value turn out when B20 was run?
**A.** 3.1024

**Q.** How did the “Log2 (fold change)” value turn out when B21 was run?
**A.** 2.6513

same assay, conditions: high-throughput screen of dXR repression of the HBEGF gene; change in abundance of each domain in the library before and after diphtheria toxin selection

**Q.** Which “Log2 (fold change)” value does the source give for B22 here?
**A.** 2.1842

**Q.** B23 was tested. Which “Log2 (fold change)” value did it give?
**A.** 3.114

**Q.** Which “Log2 (fold change)” value does the source give for B24 here?
**A.** 2.7603

**Q.** B25 was tested. Which “Log2 (fold change)” value did it give?
**A.** 3.5462

**Q.** With B26 as the molecule, how does the “Log2 (fold change)” value read?
**A.** 2.8105

**Q.** With B27 as the molecule, how does the “Log2 (fold change)” value read?
**A.** 3.3237

**Q.** Which “Log2 (fold change)” value does the source give for B28 here?
**A.** 2.8406

**Q.** For B29, which “Log2 (fold change)” value is on record?
**A.** 3.092

**Q.** With B30 as the molecule, how does the “Log2 (fold change)” value read?
**A.** 2.911

**Q.** With B31 as the molecule, how does the “Log2 (fold change)” value read?
**A.** 2.7334

**Q.** With B32 as the molecule, how does the “Log2 (fold change)” value read?
**A.** 2.3718

**Q.** B33 was tested. Which “Log2 (fold change)” value did it give?
**A.** 3.7601

**Q.** With B34 as the molecule, how does the “Log2 (fold change)” value read?
**A.** 2.8894

**Q.** For B35, which “Log2 (fold change)” value is on record?
**A.** 4.544

**Q.** With B36 as the molecule, how does the “Log2 (fold change)” value read?
**A.** 3.8614

**Q.** How did the “Log2 (fold change)” value turn out when B37 was run?
**A.** 3.3195

**Q.** Which “Log2 (fold change)” value does the source give for B38 here?
**A.** 2.7871
